Source: the RNAGym collection of RNA variant scans (doi:10.1073/pnas.2313332121)

B1: TPR t1 (parent)
chain: GACCAAUCUGCCCUCAGAGCUCGAGAACAUCUUCGGAUGCAGAGGAGGCAGGCUUCGGUGGCGCGAUAGCGCCAACGUCCUCAACCUCCAAUGCAUCCCACCACAUGAUGAUGCCUGAAGAGCCUUGGUUUUUUG

Variants of: B1
Experiment: polymerase ribozyme fitness, log enrichment relative to wild type (log ratio); higher = more active; in vitro selection for triplet polymerase activity
Summary of the method: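 To select mutant libraries of each subunit of a heterodimeric triplet polymerase ribozyme, built by PCR and transcribed, each was annealed with a biotinylated primer, partner subunit and triplets, then incubated frozen at −7 °C. Extended constructs were gel-excised, captured on streptavidin beads and amplified by RT-PCR, in one round carried out in triplicate. Illumina sequencing of input and output libraries kept genotypes with ≥10 input reads and ≥1 read per output. Fitness is the base-2 logarithm of genotype enrichment relative to wild-type enrichment, from inverse-variance-weighted replicate averages.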

Point of comparison: C20U U38A A50U G71A, “polymerase ribozyme fitness (log ratio)” value -4.89. Against it:
- C20U G35C G57U C80U U129G — lower, -5.92
- G19U G61A — higher, -3.31
- C20A G61U G63A C72U U92C C99G C101A C123U — lower, -6.1
- U21A C56A — higher, -0.423
- U21A C56U — higher, -0.334
- U21A C124G — higher, 0.373
- C20U G61U — higher, -1.41
- G19A U106A — higher, -2.97
- C20A C31U G44C A68C G113C U116C G135C — lower, -5.66
- C20U A43G C62U U112C — higher, -1.04
- U21A U81A C101A G113C — higher, -4.64
- U21A C22G A27U C56U C114U — higher, -3.34
- C20A G36U — higher, -2.98
- C20U A41G G60C — higher, -2.04
- C20U A43G U112C — higher, -0.81
- U21C U55A U78A U131A — higher, -0.459
- G19U U55G U87G A95C U112C C114A — higher, 0.393
- G19U G58C — higher, -4.22
- C20U C22A C76U C85G C123U — lower, -5.95
- C20U A43G C62U U78G U87A C89G — lower, -5.31
- C20U C31G A66U C73U C98A G110A — lower, -6.9
- C20G G44C C72G A95G — lower, -5.22
- C20G A118U — higher, -3.53
- U21G C56U U78G C86U A121G — higher, -0.445
- U21A C49G C62A G113C — within 0.2 log units, -4.99
- C20A C62G A66C C104G U116C C123G G128U — lower, -6.82
- C22A A83G U96A C114A — lower, -5.87
- G19C C62A U96A C124A G128C — lower, -5.42
- G19U C80A G113A — within 0.2 log units, -5
- G19A C73G G77U U112A G128A — higher, -2.41
- U21C U59G C101A — higher, -1.38
- G19C C22U A46C G61U — lower, -5.14
- U21C G69U C89U — higher, -0.984
- C20A A91C — higher, -3.55
- U21C G52U G60C — higher, -1.61
- C20A C88A — higher, -2.94
- C20G G47A G57U — lower, -5.83
- U21C C28A G57U C70A U78G G110U — higher, -3.7
- G19U C72G U78A — within 0.2 log units, -5.06
- G19C C20U C31G C89U U109C C123U — lower, -7.81
- G19U C56A G113C — higher, -3.24
- G19A G51U G60A C124U — lower, -5.85
- U21A U92A — higher, -3.73
- C20U C40G A46C G60U A75C — higher, -4.1
- C20A U96A C102G C114A — lower, -5.84
- C20A U112C U116A — higher, -3.11
- C20U G61A C88A — higher, -1.39
- U21A G36A — higher, -0.614
- U21G A26U C72A C104A G110U U125G — lower, -7.09
- G19U G23C A27G A41C A46U G47C C70U C115U G135A — lower, -5.42
- C22A C49U C73G — higher, -4.03
- U21C C56U C62A G63A A90C C101A U112C — lower, -6.74
- C20A G93U U112G — higher, -4.35
- C20A A27G C40G U55C G71C — higher, -4.12
- G19C G61A U81G A84G A91G A111G — higher, -4.6
- C20U A41C — higher, -3.04
- G19U C56U C89G — higher, -3.6
- C20A U32A — higher, -3.55
- C20U C70U C102U — higher, -3.45
- C20G C28U A37U A43U G45A U106A C123G — lower, -7.36
- C20A C53U U87A — higher, -3.21
- U21A A43U C72A — higher, -2.36
- C20U C22A G23U G44U G63A C88G A103C U109A — lower, -6.38
- C20U G117U — higher, -3.53
- G19C A24G A26U C34U A43C G61U C123G — lower, -7.57
- U21C U78C U96C C114A — higher, -1.81
- C20U G44U A50G A74G — higher, -3.66
- C20U A46C C72G — higher, -3.17
- C22A C53G — within 0.2 log units, -5
- C20G U21A C62U U112A — higher, -1.31
- G19C G69C C86G A121G — higher, -3.28
- G19A C102A — lower, -5.35
- C22A C49U C73G C124G — higher, -4.49
- G19A C114A A121U — higher, -1.17
- C20U C72U C82U C115A — higher, -1.91
- C20U A24U C56U — lower, -6.92
- G19A G60A — higher, -1.41
- G19U G51A G60A G77C G113U — lower, -6.6
- C20A C56G — higher, -3.63
- C20A C56U — higher, -2.54
- C20A C56A — higher, -2.5
- C20G C40U G42C G48U U109A — higher, -4.15
- U21G U54C G58A U81A A91G A95U G113A U125G — lower, -5.59
- C20A G45U C56U — higher, -3.25
- U21C G77A C88U U106C G110A — within 0.2 log units, -5
- U21G A37G A41U U78C G113U — higher, -2.05
- G19C C20A C56U G71A A95U C102U U116C C123U U126G — lower, -5.6
- G19U U59A — higher, -3.3
- C20U U55A C79U G120A — higher, -1.1
- U21A G39C C49U G63A A75G A121C — higher, -2.73
- G19U G25A C53U C64G G107C C114G — lower, -8.12
- U21C C124U — higher, 1.84
- C20G A37G G69U C79U G117C — higher, -1.73
- G19U A43U G122A C124A — higher, -2.23
- C20U G23A G61A U112A G113A G122C U130C — lower, -6.32
- G19C A41U G71A C88G C89U C104A C124U — lower, -5.88
- U21A A37C U38G U112G G122C C124U G135A — higher, -1.11
- U21C G57A C72U G77C U96A A121U U125A — higher, -3.06
- C20G C62U G113C — higher, -1.25
- C22A C40A C73A C123U — within 0.2 log units, -4.93
- C20U G61C A111G — lower, -5.2
- U21A A43U G60A C115U — higher, -2.81
- C20U G52U C53U C56A C123A — higher, -3.62
- C20A C76U C82G U96G — higher, -4.53
- U21A C40A A46U A90U G93U — higher, -2.45
- C20A U87G U92G — higher, -4.3
- U21A A66U U112G — higher, -0.949
- U21A C62A C89U G110A U112C — lower, -5.55
- C20A A43C C94U — higher, -4.19
- C20G C56A C124U — higher, -4.05
- C20A G71A — higher, -3.79
- C20A A74U — higher, -3.01
- C20U G36U C70U G135U — higher, -3.95
- C20U C28A G60A A121C — higher, -2.44
- U21C G23A G44C G48A A90U C97G C101U C102U C114A — lower, -7.25
- U21A A37U C72U — higher, -0.453
- C20U G69U C70G C94A — higher, -3.15
- U21A A27C — higher, -3.89
- G19A G45A C62U G71A — higher, -3.18
- G19A G58C G107A C114U — higher, -3.12
- G19C C101A — higher, -3.27
- G19U U55G C70U U87G A95C U112C C114A — higher, -0.702
- U21C C56A G58A G113C U132A — higher, -2.29
- G19C A41U U130C — higher, -2.43
- G19C A41U C64G C98A U109A — lower, -6.43
- U21A G60A U96C U116G — higher, -1.53
- C20U C53G — higher, -1.28
- G19C C31G C72G G110U U131A — lower, -7.2
- G19U G61A C82G C124A — higher, -2.1
- C22A A43C U78C A83C C86U G113A — lower, -5.47
- G19U G107A G120A U125A — lower, -7.29
- U21A G44A C62U — higher, -1.4
- C20U A26G A43G C53G C62A C82U — lower, -5.29
- U21C C70G C94U A111G G128A U131A — higher, -3.27
- U21G A37U C80A A121G — higher, -3.51
- C20A G57C C62U — higher, -1.88
- U21G A84C — higher, -2.02
- C20U G52A C124U — higher, 0.255
- C20G G69U C99U — within 0.2 log units, -5.06
- U21A C72G C86G — higher, -2.59
- U21G C40A U92A — higher, -2.98
- C22A C56G — higher, -4.66
- U21A G69A U112A — higher, -3
- C20U G42A — higher, -2.49
- C20A U32G G44A C73A C114G U132A — lower, -5.73
- G19C G39A C53A C76U — higher, -3.34
- G19C — higher, -1.91
- G19U — higher, -2.52
- C20U G63C C94A G120C — higher, -2.23
- U21G G117A — higher, -2.55
- C22A C31A C64G C97U C115A G127U U129G U130G — lower, -6.15
- U21G A37G A41U G113U — higher, -2.41
- U21A A46U G93A G113U U130A U132A — higher, -3.92
- C20G A50C C80U G93A G120C U125G — lower, -6.66
- U21A A37U C94U G120A — higher, 0.736
- C20U A29G G63A C80U — higher, -4.01
- C20U A95G C104A U109C C114U C124A — higher, -3.03
- C20U G63A U96G — higher, -3.22
- C20G G36U U92C C101A U106A U109A — higher, -3.02
- U21G G63C U78A C115U A119U U130A — lower, -5.59
- U21A G57C G120A — higher, -0.312
- C20A U59A U78A G117A — within 0.2 log units, -4.88
- U21A G23U G42C A68G C94A U112A — lower, -6.75
- U21A G23A A121C — lower, -5.61
- C20A G63A C102G G113C C115A G117C — lower, -8.43
- U21A A43U G61U C102A — within 0.2 log units, -4.93
